In patent US20190275125A1 one finds IC50 data, which are given here for one molecule.

Holding throughout (experiment): MSD inhibition assay, abeta 1-28 coated plates
Experiment [1] deals with Biosimilar (BS) bapineuzumab.
The target of experiment [2] is Biosimilar (BS) bapineuzumab. This is another data set of the same source.
For experiment [3], the target named is Biosimilar (BS) bapineuzumab. The source holds these as a separate data set.

Read-outs that look alike come from different tables or passages of the source.

Sequence of Biosimilar (BS) bapineuzumab (chain, as listed by the source, chain 1 of 2): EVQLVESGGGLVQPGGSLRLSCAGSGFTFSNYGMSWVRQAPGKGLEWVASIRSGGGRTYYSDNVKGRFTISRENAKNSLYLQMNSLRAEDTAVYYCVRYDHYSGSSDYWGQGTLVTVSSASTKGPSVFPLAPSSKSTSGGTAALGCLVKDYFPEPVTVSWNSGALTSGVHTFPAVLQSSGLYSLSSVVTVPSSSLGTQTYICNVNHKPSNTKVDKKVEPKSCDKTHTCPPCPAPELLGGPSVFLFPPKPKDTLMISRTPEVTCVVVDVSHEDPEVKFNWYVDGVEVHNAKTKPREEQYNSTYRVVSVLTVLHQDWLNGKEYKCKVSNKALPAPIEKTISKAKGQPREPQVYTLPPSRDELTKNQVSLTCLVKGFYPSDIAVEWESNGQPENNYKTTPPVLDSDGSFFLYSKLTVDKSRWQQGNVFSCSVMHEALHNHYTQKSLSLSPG
Sequence of Biosimilar (BS) bapineuzumab (chain, as listed by the source, chain 2 of 2): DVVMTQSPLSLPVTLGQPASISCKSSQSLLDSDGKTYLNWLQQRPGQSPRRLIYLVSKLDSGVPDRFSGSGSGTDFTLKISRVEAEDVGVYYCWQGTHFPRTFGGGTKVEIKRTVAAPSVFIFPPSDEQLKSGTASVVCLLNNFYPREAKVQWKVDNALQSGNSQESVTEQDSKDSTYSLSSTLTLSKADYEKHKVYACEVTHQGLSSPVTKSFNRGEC

B1: abeta 1-12 trimer construct, P05067 672-683; P05067 672-683; P05067 672-683 (peptide)
peptide: DAEFRHDSGYEVGGGGGGGGDAEFRHDSGYEVGGGGGGGGDAEFRHDSGYEV
modifications: not checked
As a reminder, the IC50 is the concentration at which inhibition is half-maximal. Higher therefore signals lower potency. For B1, the results for the IC50 in experiment [1], in experiment [2] and in experiment [3] were 10 nM, 10 to 40 nM and 19 nM, respectively.
